Reference: publication PMC8879280, “A Low-Activity Polymorphic Variant of Human NEIL2 DNA Glycosylase”
Residue numbers refer to the chain shown, from its start.

What was measured:
[1] = biological target: T1, hNEIL2 R103W R103W (Homo sapiens) (UniProt Q969S2); test: EMSA; conditions: THF (AP site analog) at position 21 of strand 1 (N); 25 mM potassium phosphate pH 7.5, 5 mM MgCl2, 1 mM DTT, 0.5 mg/mL BSA, 10% glycerol; 35 nM bubble or 100 nM duplex ligand; 5 min on ice, 8% native PAGE at 4 C
T1 sequence: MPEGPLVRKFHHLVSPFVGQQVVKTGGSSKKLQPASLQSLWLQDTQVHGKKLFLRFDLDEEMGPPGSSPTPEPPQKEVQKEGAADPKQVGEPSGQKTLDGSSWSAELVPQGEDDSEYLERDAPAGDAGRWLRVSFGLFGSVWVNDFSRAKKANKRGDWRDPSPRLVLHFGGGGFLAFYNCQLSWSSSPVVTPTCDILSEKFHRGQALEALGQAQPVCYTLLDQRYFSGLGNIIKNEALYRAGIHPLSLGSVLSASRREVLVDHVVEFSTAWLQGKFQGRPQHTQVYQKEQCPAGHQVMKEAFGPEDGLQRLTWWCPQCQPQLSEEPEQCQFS

[2] = biological target: T2, hNEIL2 P304T P304T (Homo sapiens) (UniProt Q969S2); test: EMSA; conditions: THF (AP site analog) at position 21 of strand 1 (N); 25 mM potassium phosphate pH 7.5, 5 mM MgCl2, 1 mM DTT, 0.5 mg/mL BSA, 10% glycerol; 35 nM bubble or 100 nM duplex ligand; 5 min on ice, 8% native PAGE at 4 C
T2 sequence: T1 sequence with W103R, P304T

hNEIL2 WT (Homo sapiens) = biological target: T3, hNEIL2 WT (Homo sapiens) (UniProt Q969S2); test: EMSA; conditions: THF (AP site analog) at position 21 of strand 1 (N); 25 mM potassium phosphate pH 7.5, 5 mM MgCl2, 1 mM DTT, 0.5 mg/mL BSA, 10% glycerol; 35 nM bubble or 100 nM duplex ligand; 5 min on ice, 8% native PAGE at 4 C
T3 sequence: T1 sequence with W103R

hNEIL2 R103W = biological target: T4, hNEIL2 R103W (Homo sapiens, UniProt Q969S2 1-332, R103W); test: EMSA; 5 mM Mg2+; apparent, sigmoidal fit; 25 mM potassium phosphate pH 7.5, 5 mM MgCl2, 1 mM DTT, 0.5 mg/mL BSA, 10% glycerol; 35 nM bubble or 100 nM duplex ligand; 5 min on ice, 8% native PAGE at 4 C; conditions: protein: recombinant; tags: C-terminal GHHHHHH; label: 32P; 10-nt central bubble between two 15-bp arms, blunt
T4 sequence: T1 sequence

hNEIL2 WT = biological target: T5, hNEIL2 WT (Homo sapiens, UniProt Q969S2 1-332); test: as above; conditions: protein: recombinant; tags: C-terminal GHHHHHH; label: 32P; 10-nt central bubble between two 15-bp arms, blunt
T5 sequence: T1 sequence with W103R

hNEIL2 P304T = biological target: T6, hNEIL2 P304T (Homo sapiens, UniProt Q969S2 1-332, P304T); test: as above; conditions: protein: recombinant; tags: C-terminal GHHHHHH; label: 32P; 10-nt central bubble between two 15-bp arms, blunt
T6 sequence: T1 sequence with W103R, P304T

## CCTGCATGGGCGGCAGAACTNGAGGCCATCCTCACCATCC / GGATGGTGAGGATGGGAGGTTCCCTTGCCGCCCATGCAGG [40F//40bubble (THF bubble)]
[1]
  K half: 10.4 µM
[2]
  K half: 6.4 µM
hNEIL2 WT (Homo sapiens)
  K half: 1000 nM

B1: 40C//40bubble (undamaged bubble) (dsDNA)
DNA 1: CCTGCATGGGCGGCAGAACTCGAGGCCATCCTCACCATCC
DNA 2: GGATGGTGAGGATGGGAGGTTCCCTTGCCGCCCATGCAGG
hNEIL2 R103W
  apparent K (half saturation): 11.7 ± 0.7 µM
hNEIL2 WT
  apparent K (half saturation): 1000 ± 100 nM
hNEIL2 P304T
  apparent K (half saturation): 7 ± 0.3 µM
